From US20130059793A1 (University of Texas, published 2013) come the findings set out here.

Ends that are not written are not given here.

Assay [1] has as its target T1, bovine serum albumin (BSA) (bovine, UniProt P02769 25-607).
T1 construct: Negative control protein
Description: phage binding assay on immobilized proteins.

Another assay has as its target T2, VEGF (UniProt P15692-4 27-191, limits assumed).
T2 construct: Negative control protein; also called negative control protein VEGF
Nature of the assay: phage binding assay on proteins coated onto microtiter wells.

Assay [2] has as its target T3, epidermal growth factor (EGF) (UniProt P01133 971-1023).
T3 construct: Bought
Described as above.

Assay [3] has as its target T4, transforming growth factor alpha (TGF-α) (UniProt P01135 40-89).
T4 construct: Bought; also called Tumor Growth Factor alpha
The assay is described as above.

T2 sequence (P15692 other isoform, or with tags, fused parts or gaps limits assumed): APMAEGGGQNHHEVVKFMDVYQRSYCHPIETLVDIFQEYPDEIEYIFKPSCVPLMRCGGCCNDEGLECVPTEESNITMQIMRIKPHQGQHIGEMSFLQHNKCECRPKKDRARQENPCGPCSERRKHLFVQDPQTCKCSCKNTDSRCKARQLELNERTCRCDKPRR
T1 sequence (P02769 25-607 limits assumed): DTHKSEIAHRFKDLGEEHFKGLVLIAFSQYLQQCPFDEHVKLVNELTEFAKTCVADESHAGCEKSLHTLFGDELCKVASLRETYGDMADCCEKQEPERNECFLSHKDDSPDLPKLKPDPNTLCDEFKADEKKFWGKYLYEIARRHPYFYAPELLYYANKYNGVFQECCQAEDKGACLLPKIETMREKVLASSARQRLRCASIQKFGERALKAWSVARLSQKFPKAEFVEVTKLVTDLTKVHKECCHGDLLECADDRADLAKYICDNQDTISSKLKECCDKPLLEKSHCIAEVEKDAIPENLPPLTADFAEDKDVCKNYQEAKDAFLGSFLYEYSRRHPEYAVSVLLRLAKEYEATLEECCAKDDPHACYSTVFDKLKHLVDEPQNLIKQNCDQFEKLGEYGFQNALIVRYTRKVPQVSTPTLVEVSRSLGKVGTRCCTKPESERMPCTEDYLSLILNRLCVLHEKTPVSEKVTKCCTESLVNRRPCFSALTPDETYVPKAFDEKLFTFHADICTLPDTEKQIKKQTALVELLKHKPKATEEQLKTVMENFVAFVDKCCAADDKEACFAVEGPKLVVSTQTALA
T3 sequence (P01133 971-1023 limits assumed): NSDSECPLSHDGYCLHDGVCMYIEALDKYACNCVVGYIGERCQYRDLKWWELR

B1: CVRAC-displaying phage (peptide)
peptide: CVRAC
modifications: not fully specified (bridges); also: cyclic, ring type not given here, displayed on phage
notes: the phage coat protein that carries the insert is not described; also called CVRAC-phage; phage displaying the cyclic peptide CVRAC
B1: the binding result (in assay [1]; in the assay with VEGF) was “no binding” in each case.

B2: CVAAC-displaying phage (peptide)
peptide: CVAAC
modifications: not fully specified (bridges); also: cyclic, ring type not given here, displayed on phage
notes: coat protein fusion not described; also called CVAAC-phage; alanine scanning control
On to B2, for which the binding result in assay [2] and in assay [3] was “no binding” throughout.
